Key:
[1] = target: bovine recombinant glutamate dehydrogenase, P00366
bovine recombinant glutamate dehydrogenase, P00366, sequence (P00366 58-558): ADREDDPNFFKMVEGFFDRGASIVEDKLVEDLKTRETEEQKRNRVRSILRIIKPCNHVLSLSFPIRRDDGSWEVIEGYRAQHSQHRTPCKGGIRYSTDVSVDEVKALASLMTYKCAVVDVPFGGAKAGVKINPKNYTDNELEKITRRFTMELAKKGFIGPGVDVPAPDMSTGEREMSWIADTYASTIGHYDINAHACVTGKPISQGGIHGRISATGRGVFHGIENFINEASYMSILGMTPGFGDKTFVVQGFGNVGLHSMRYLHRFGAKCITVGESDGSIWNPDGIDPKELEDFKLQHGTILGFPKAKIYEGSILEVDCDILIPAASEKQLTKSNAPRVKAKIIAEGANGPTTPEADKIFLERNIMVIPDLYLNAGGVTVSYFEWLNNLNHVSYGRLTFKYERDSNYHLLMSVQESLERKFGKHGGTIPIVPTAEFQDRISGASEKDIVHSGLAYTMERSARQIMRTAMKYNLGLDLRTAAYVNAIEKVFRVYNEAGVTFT

B1: human Sirt4 with a C-terminal FLAG (protein)
chain: IGLFVPASPPLDPEKVKELQRFITLSKRLLVMTGAGISTESGIPDYRSEKVGLYARTDRRPIQHGDFVRSAPIRQRYWARNFVGWPQFSSHQPNPAHWALSTWEKLGKLYWLVTQNVDALHTKAGSRRLTELHGCMDRVLCLDCGEQTPRGVLQERFQVLNPTWSAEAHGLAPDGDVFLSEEQVRSFQVPTCVQCGGHLKPDVVFFGDTVNPDKVDFVHKRVKEADSLLVVGSSLQVYSGYRFILTAWEKKLPIAILNIGPTRSDDLACLKLNSRCGELLPLIDPC
For B1, the “mass spectroscopy of histone 2A after incubation with Sirt4 and NAD” value (histone 2A protein) was “Sirt4 transferred an approximately 500 Dalton moiety to Histone 2A” and the “glutamate dehydrogenase activity (disappearance of NADH, A340) after one hour with Sirt4 and NAD” value [1] was “Sirt4, but not the buffer control, significantly reduced the enzymatic activity of glutamate dehydrogenase”.
